This note sets out measurements from patent publication US20100260765A1 (AstraZeneca / MedImmune, published 2010).

Holding throughout (test): cell-based or functional assay
In assay [1] the target is T1, KDR (human, UniProt P35968 20-1356).
The target in assay [2] is T1, KDR. The source holds these as a separate data set.
Assay [3] concerns the target T1, KDR. The source holds these as a separate data set.
The target of assay [4] is T1, KDR. This is another data set of the same source.
Assay [5] addresses T1, KDR. The source holds these as a separate data set.

T1 sequence (P35968 20-1356): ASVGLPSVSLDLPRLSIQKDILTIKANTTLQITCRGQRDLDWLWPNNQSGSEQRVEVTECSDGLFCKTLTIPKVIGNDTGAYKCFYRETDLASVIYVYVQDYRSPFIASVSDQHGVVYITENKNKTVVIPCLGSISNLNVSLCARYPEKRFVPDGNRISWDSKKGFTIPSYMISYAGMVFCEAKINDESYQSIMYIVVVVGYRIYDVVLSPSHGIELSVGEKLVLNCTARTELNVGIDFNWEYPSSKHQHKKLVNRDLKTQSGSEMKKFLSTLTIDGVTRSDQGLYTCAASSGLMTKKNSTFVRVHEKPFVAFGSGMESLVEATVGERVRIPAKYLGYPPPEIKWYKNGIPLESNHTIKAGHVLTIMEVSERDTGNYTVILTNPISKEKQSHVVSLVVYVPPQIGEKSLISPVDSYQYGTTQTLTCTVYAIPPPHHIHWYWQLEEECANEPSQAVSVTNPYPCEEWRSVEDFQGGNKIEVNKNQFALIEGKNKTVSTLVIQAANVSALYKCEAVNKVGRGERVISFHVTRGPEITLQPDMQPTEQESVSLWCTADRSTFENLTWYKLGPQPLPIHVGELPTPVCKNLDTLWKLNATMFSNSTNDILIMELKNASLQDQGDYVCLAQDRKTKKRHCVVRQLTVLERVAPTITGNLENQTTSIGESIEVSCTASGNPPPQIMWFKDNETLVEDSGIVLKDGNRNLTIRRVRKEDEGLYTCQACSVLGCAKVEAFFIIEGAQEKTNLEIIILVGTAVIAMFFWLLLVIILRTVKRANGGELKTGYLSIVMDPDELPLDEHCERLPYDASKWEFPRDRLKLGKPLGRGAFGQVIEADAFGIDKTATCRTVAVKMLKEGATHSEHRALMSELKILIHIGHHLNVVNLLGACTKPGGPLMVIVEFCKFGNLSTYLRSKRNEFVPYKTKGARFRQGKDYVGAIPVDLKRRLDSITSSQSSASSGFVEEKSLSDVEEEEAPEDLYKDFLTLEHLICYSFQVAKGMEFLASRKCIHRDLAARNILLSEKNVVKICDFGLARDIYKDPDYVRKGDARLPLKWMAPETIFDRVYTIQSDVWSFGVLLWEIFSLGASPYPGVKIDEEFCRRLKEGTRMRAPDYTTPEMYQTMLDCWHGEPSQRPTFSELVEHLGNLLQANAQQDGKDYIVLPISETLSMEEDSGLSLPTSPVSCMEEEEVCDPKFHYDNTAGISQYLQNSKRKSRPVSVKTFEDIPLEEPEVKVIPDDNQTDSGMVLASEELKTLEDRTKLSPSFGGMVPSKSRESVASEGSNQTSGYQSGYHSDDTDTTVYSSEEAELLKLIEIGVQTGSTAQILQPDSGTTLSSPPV

B1: 24B3 (antibody, V domains shown)
VH: EVQLVESGGGLVKPGGSLRLSCAASGFTFSTYSMNWVRQAPGKGLEWVSFISGRSSYIYYADSVKGRFTISRDNAKNSLYLQMNSLRAEDTAVYYCSKDDWFEELWGQGTLVTVSS
VL: DIQMTQSPSSLSASVGDRVTITCRASQGIRSDLGWYQQKPGKAPKRLIYATSSLQSGVPSRFSGSGSGTEFTLTISSLQPEDFATYYCLQHNRYPWTFGQGTKVEIK
With B1, in the assay with KDR [1], the “Activity at 133 nM (% Inhibition), 1-hour Pre-incubation at 4° C., Average” value is 80%; the “Activity at 133 nM (% Inhibition), 1-hour Pre-incubation at 4° C., N = 1” value worked out at 80%; the “Activity at 133 nM (% Inhibition), 1-hour Pre-incubation at 4° C., N = 2” value worked out at 80%. Besides, in the assay with KDR [2], the “Activity at 133 nM (% Inhibition), 24-hour Pre-incubation at 37° C., Average” value was 72%; the “Activity at 133 nM (% Inhibition), 24-hour Pre-incubation at 37° C., N = 1” value was 76%; the “Activity at 133 nM (% Inhibition), 24-hour Pre-incubation at 37° C., N = 2” value worked out at 69%. Further, in the assay with KDR [3], the “% of Max VEGF KDR pTyr Activity (at 133 nM antibody concentration), Average” value was determined as 14%; the “% of Max VEGF KDR pTyr Activity (at 133 nM antibody concentration), N = 1” value is 12%; the “% of Max VEGF KDR pTyr Activity (at 133 nM antibody concentration), N = 2” value amounted to 15%. In the assay with KDR [4], the “Activity at 133 nM Antibody Concentration (% Survival Inhibition), Average” value was 65%; the “Activity at 133 nM Antibody Concentration (% Survival Inhibition), N = 1” value was 65%; the “Activity at 133 nM Antibody Concentration (% Survival Inhibition), N = 2” value came out at 64%. Besides, in the assay with KDR [5], the “% Inhibition of VEGF165-mediated 6-keto Prostaglandin F1α release at 133 nM Antibody Concentration, Average” value is 68%; the “% Inhibition of VEGF165-mediated 6-keto Prostaglandin F1α release at 133 nM Antibody Concentration, N = 1” value is 66%; the “% Inhibition of VEGF165-mediated 6-keto Prostaglandin F1α release at 133 nM Antibody Concentration, N = 2” value was found to be 70%.

B2: 32C11 (antibody, V domains shown)
VH: EVQLLESGGTLVQPGGSLRLSCAASGFTFSNYAMSWVRQAPGKGLEWVSAISGRAGSTYYADSVKGRFTISRDNSKNTLFLQMNSLRAEDTAVYYCAKASGDDWGQGTLVTVSS
VL: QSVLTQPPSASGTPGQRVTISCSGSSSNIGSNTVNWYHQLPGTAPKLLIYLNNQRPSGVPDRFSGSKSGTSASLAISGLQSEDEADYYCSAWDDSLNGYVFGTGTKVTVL
Take B2: in the assay with KDR [1], the “Activity at 133 nM (% Inhibition), 1-hour Pre-incubation at 4° C., Average” value turned out to be 27%; the “Activity at 133 nM (% Inhibition), 1-hour Pre-incubation at 4° C., N = 1” value is 32%; the “Activity at 133 nM (% Inhibition), 1-hour Pre-incubation at 4° C., N = 2” value is 21%. Also, in the assay with KDR [2], the “Activity at 133 nM (% Inhibition), 24-hour Pre-incubation at 37° C., Average” value was determined as 73%; the “Activity at 133 nM (% Inhibition), 24-hour Pre-incubation at 37° C., N = 1” value is 73%; the “Activity at 133 nM (% Inhibition), 24-hour Pre-incubation at 37° C., N = 2” value came to 73%. For the same molecule, in the assay with KDR [3], the “% of Max VEGF KDR pTyr Activity (at 133 nM antibody concentration), Average” value is 10%; the “% of Max VEGF KDR pTyr Activity (at 133 nM antibody concentration), N = 1” value is 9%; the “% of Max VEGF KDR pTyr Activity (at 133 nM antibody concentration), N = 2” value worked out at 11%. Further, in the assay with KDR [4], the “Activity at 133 nM Antibody Concentration (% Survival Inhibition), Average” value is -91%; the “Activity at 133 nM Antibody Concentration (% Survival Inhibition), N = 1” value was -95%; the “Activity at 133 nM Antibody Concentration (% Survival Inhibition), N = 2” value is -87%. In the assay with KDR [5], the “% Inhibition of VEGF165-mediated 6-keto Prostaglandin F1α release at 133 nM Antibody Concentration, Average” value turned out to be 9%; the “% Inhibition of VEGF165-mediated 6-keto Prostaglandin F1α release at 133 nM Antibody Concentration, N = 1” value worked out at 6%; the “% Inhibition of VEGF165-mediated 6-keto Prostaglandin F1α release at 133 nM Antibody Concentration, N = 2” value was determined as 11%.
